We go through two molecules from US20250136687A1 (SHANDONG SIMCERE BIOPHARMACEUTICAL, published 2025).

Where two headings read alike, the source gives them in different places.

What is called EC50 is the concentration that produces a half-maximal response.

The target in assay [1] is T1, human CD3 on the cell surface (Jurkat cells, expanded human T cells, Jurkat-Lucia NFAT cells, human PBMC) (human, UniProt P07766 23-207; P04234 22-171; P09693 23-182).
T1 construct: whole, on cells; Endogenous CD3 within the TCR-CD3 complex on cells (also zeta chains and TCR); the cell type is named under assay
T1 sequence (P07766 23-207, chain 1 of 3): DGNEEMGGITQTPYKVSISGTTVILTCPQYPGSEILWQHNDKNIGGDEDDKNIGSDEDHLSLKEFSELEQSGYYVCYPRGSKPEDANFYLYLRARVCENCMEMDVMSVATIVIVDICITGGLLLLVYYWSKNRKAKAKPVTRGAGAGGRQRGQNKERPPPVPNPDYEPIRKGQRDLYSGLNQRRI
T1 sequence (P04234 22-171, chain 2 of 3): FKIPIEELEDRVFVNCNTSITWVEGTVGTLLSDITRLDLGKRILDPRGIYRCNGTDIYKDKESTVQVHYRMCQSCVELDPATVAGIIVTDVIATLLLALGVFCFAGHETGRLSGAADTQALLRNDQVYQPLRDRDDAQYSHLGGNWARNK
T1 sequence (P09693 23-182, chain 3 of 3): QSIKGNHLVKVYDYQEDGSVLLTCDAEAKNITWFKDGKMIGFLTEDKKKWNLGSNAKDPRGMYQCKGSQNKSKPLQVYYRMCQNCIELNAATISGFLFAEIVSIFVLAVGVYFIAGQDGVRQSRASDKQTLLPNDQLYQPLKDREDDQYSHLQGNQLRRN
Put plainly: FACS, Jurkat cells. The procedure:
(§1) The binding of the chimeric antibodies to CD3 on the cell surface was analyzed by detecting the binding of the antibodies to Jurkat cells and human T cells. Suspension cells Jurkat cells were scale-up cultured in T-75 cell culture flasks to the logarithmic growth phase, the supernatant of the medium was discarded by centrifugation, and the cell pellet was washed 2 times with PBS for later use. The expanded human T cells were washed 2 times with PBS for later use. After counting the cells in the previous step, the cell pellet was resuspended with [PBS+2% (w/w) BSA] blocking solution to 4×10⁶ cells/ml, and added to a 96-well FACS reaction plate at 50 μl/well, and then the chimeric antibody to be tested was added at 50 μl/well, and incubated at 4° C. for 1 h. The cells were centrifuged and washed 3 times with a PBS buffer. […] The cells were centrifuged and washed 5 times with PBS, and FACS (FACS Canto™, purchased from BD Company) was used for detection and result analysis. Data analysis was performed by software (CellQuest) to obtain the mean fluorescence […] (MFI) of the cells. And then software (GraphPad Prism8) was used for analysis, data fitting, and EC50 value calculation. The same method was used to simultaneously detect the binding of the chimeric antibodies to endogenous CD3 negative cells MOLT4 cells.

Assay [2] deals with T2, monkey CD3ε protein (monkey, UniProt Q95LI5 22-117, limits assumed).
T2 sequence (looked up): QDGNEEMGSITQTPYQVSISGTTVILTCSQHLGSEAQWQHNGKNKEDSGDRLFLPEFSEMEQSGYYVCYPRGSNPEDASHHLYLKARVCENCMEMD
Put plainly: ELISA, coated antigen. Background: ELISA stands for enzyme-linked immunosorbent assay.

Assay [3] addresses T3, monkey CD3ε/δ-His (monkey, UniProt Q95LI5 22-117; Q95LI8 22-105).
T3 construct: Bought recombinant heterodimer with His tag
As to the kind of experiment: ELISA, coated antigen.

For assay [4], the target named is T1, human CD3 on the cell surface (Jurkat …). As to the kind of experiment: FACS, expanded human T cells. On the technique in general: A flow cytometer gives signals particle by particle.
For assay [5], the target named is T4, cynomolgus monkey CD3 on the surface of expanded monkey T cells (cynomolgus monkey, UniProt Q95LI5 22-198; Q95LI8 22-171; Q95LI7 23-181).
T4 construct: whole, on cells; Endogenous CD3 within the TCR-CD3 complex on T cells expanded from cynomolgus monkey PBMC
T4 sequence (Q95LI5 22-198, chain 1 of 3): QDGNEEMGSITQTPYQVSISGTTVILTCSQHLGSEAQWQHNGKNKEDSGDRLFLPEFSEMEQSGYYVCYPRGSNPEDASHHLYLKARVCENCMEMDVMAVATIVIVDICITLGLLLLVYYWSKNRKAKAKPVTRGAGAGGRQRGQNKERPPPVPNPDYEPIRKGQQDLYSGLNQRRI
T4 sequence (Q95LI8 22-171, chain 2 of 3): as the sequence (P04234 22-171, chain 2 of 3) above, with I5V, N15K, I20V, S32T, D33N, I34N, T64A, S74N, V83L, H141R counted along it
T4 sequence (Q95LI7 23-181, chain 3 of 3): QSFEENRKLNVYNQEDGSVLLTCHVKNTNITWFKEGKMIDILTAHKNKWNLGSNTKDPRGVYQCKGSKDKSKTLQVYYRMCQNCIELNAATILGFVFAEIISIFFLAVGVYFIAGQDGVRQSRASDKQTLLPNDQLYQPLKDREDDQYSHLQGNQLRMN
Put plainly: FACS, expanded monkey T cells.

In assay [6] the target is T1, human CD3 on the cell surface (Jurkat …). As to the kind of experiment: FACS, expanded human T cells. The procedure: as §1
The source holds these as a separate data set.

Assay [7] has as its target T5, human CD3ε/δ-His (human, UniProt P07766 23-126; P04234 22-105).
T5 construct: Bought recombinant heterodimer with His tag; also called human CD3ε/δ protein
As to the kind of experiment: ELISA, coated antigen. The procedure:
(§2) To detect the binding activity of the humanized antibodies to CD3 protein, CD3 protein was diluted with PBS to the final concentration of […], then added to a 96-well ELISA plate at 50 μL/well, and the plate was sealed with a plastic film, and incubated overnight at 4° C. On the next day, the plate was washed 2 times with PBS, and a blocking solution [PBS+2% (v/v) BSA] was added for blocking at room temperature for 2 h. The blocking solution was poured off, and the antibody (initial concentration of 100 nM, and gradient dilution at 1:10) or a negative control antibody was added at 50 µl/well. After incubation at 37° C. for 2 h, the plate was washed 3 times with PBS. […] TMB substrate was added at 50 μl/well, and incubated at room temperature for 10 min, and then a stop solution (1.0 N HCl) was added at 50 μl/well. The OD450 nm values were read by an ELISA microplate reader (Multimode Plate Reader, EnSight, purchased from Perkin Elmer).

For assay [8], the target named is T6, recombinant human CD3ε-ECD His protein (human, UniProt P07766 23-126).
T6 construct: extracellular domain; also called human CD3ε-His; CD3ε antigen protein; not shown: His tag
T6 sequence (P07766 23-126): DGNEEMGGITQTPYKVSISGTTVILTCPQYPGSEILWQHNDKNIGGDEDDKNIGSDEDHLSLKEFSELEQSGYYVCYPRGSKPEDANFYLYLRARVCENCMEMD
As to the kind of experiment: ELISA, coated antigen. How it is done: as §2

The target in assay [9] is T1, human CD3 on the cell surface (Jurkat …). As to the kind of experiment: cell-based or functional assay.
The target is the same in assay [10]. As to the kind of experiment: FACS, Jurkat cells. How it is done:
as §1
The source holds these as a separate data set.

For assay [11] the target is unchanged. Put plainly: FACS, expanded human T cells. The procedure: as §1
This is another data set of the same source.

The target is the same in assay [12]. Put plainly: FACS, expanded human T cells. The procedure: as §1
The source holds these as a separate data set.

Assay [13] has the same target. Put plainly: cell-based or functional assay. This is another data set of the same source.

T5 sequence (P07766 23-126, stated change not applied, form in doubt, chain 1 of 2): as the sequence (P07766 23-126) above
T5 sequence (P04234 22-105, stated change not applied, form in doubt, chain 2 of 2): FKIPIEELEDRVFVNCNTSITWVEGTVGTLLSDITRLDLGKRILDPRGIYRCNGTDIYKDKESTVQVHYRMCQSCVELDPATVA

B1: F2B-hIgG1 (antibody, V domains shown)
VH: EVQLVESGGGLVQPGRSLRLSCAASGFTFDDYAMHWVRQAPGKGLEWVSGISWNSGSIGYADSVKGRFTISRDNAKNSLYLQMNSLRAEDTALYYCAKDSRGYGDYRLGGAYWGQGTLVTVSS
VL: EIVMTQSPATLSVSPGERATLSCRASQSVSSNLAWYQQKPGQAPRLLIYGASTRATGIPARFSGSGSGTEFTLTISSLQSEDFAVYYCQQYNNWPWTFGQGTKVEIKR
notes: also called F2Bs
Consider B1, for which the EC50 amounted to 8.77 nM in assay [1]; 7.03 nM in assay [4]; 7.56 nM in assay [6]; 6.18 nM in assay [10]; 10.4 nM in assay [11]; 15.8 nM in [12]. Moreover, the MFI_Max in assay [1] was found to be 841 MFI; in assay [6] it was 8780 MFI; in assay [10], 2080 MFI; in assay [11] it was 1980 MFI; in [12] it was 2360 MFI. In [2], the binding result is “no binding (tested: 100 nM (initial concentration))”. The max-OD450 in assay [2] stood at 0.06 OD450; in assay [3], 0.05 OD450; in [7], 0.16 OD450; in [8], 0.16 OD450. For the same molecule, the values for the max_MFI in assay [4] and in assay [5] were 9270 MFI and 72 MFI, respectively. Also, the “EC50 (nM), luciferase reporter, Jurkat-Lucia NFAT cells” value in [9] came to 23.7 nM. Also, the “Maximum response value (RLU)” value in [9] worked out at 14500 RLU; in assay [13], 12000 RLU.

B2: 40G5c-hIgG1 (antibody, V domains shown)
VH: EVQLVQSGAEVKKPGASVKVSCKASGYTFTNYYIHWVRQAPGQGLEWIGWIYPGDGNTKYNEKFKGRATLTADTSTSTAYLELSSLRSEDTAVYYCARDSYSNYYFDYWGQGTLVTVSS
VL: DIVMTQSPDSLAVSLGERATINCKSSQSLLNSRTRKNYLAWYQQKPGQPPKLLIYWASTRESGVPDRFSGSGSGTDFTLTISSLQAEDVAVYYCTQSFILRTFGQGTKVEIKR
For B2, the EC50 in assay [1] came to 0.16 nM; in assay [2], 0.128 nM; in [3], 0.0754 nM; in assay [4] it was 2.09 nM; in [5], 0.89 nM; in assay [6], 0.46 nM. The EC50 is 0.36 nM in assay [7]; 0.22 nM in [8]; 0.47 nM in assay [10]; 0.7 nM in assay [11]; 0.66 nM in [12]. Moreover, the MFI_Max in [1] stood at 6340 MFI; in [6], 40900 MFI; in [10], 11300 MFI; in [11] it was 12300 MFI; in [12], 15400 MFI. For the same molecule, the max-OD450 in assay [2] is 2.96 OD450; in [3], 2.52 OD450; in assay [7], 2.83 OD450; in [8] it was 2.59 OD450. Further, the results for the max_MFI in [4] and in assay [5] were 33500 MFI and 24100 MFI, respectively. Moreover, the “EC50 (nM), luciferase reporter, Jurkat-Lucia NFAT cells” value in [9] was determined as 1.74 nM; in assay [13], 5.97 nM. Also, the “Maximum response value (RLU)” value in assay [9] was determined as 33400 RLU; in assay [13], 46900 RLU.
